{"source": "paper PMC13139468", "about": "“A model for drug transport across two membranes of Gram-negative bacteria by an MFS tripartite assembly” (Nature Communications, 2026)", "binders": {"B1": {"name": "modified free EmrA (N-terminal residues 1-47 replaced by residues 1-27 of AcrA) (other)", "chain": "CDDHFEETDDAYVAGNQIQIMSQVSGSVTKVWADNTDFVKEGDVLVTLDPTDARQAFEKAKTALASSVRQTHQLMINSKQLQANIEVQKIALAKAQSDYNRRVPLGNANLIGREELQHARDAVTSAQAQLDVAIQQYNANQAMILGTKLEDQPAVQQAATEVRNAWLALERTRIISPMTGYVSRRAVQPGAQISPTTPLMAVVPATNMWVDANFKETQIANMRIGQPVTITTDIYGDDVKYTGKVVGLDMGTGSAFSLLPAQNATGNWIKVVQRLPVRIELDQKQLEQYPLRIGLSTLVSVNTTNRDGQVLANKVRSTPVAVSTAREISLAPVNKLIDDIVKANAG", "modifications": "C25 (AcrA numbering) modified by a palmitoyl acid chain", "notes": "also called acrAsignal-ΔemrA; free EmrA of pump-EA"}, "B2": {"name": "wild-type free EmrA (natural protein)", "chain": "MSANAETQTPQQPVKKSGKRKRLLLLLTLLFIIIAVAIGIYWFLVLRHFEETDDAYVAGNQIQIMSQVSGSVTKVWADNTDFVKEGDVLVTLDPTDARQAFEKAKTALASSVRQTHQLMINSKQLQANIEVQKIALAKAQSDYNRRVPLGNANLIGREELQHARDAVTSAQAQLDVAIQQYNANQAMILGTKLEDQPAVQQAATEVRNAWLALERTRIISPMTGYVSRRAVQPGAQISPTTPLMAVVPATNMWVDANFKETQIANMRIGQPVTITTDIYGDDVKYTGKVVGLDMGTGSAFSLLPAQNATGNWIKVVQRLPVRIELDQKQLEQYPLRIGLSTLVSVNTTNRDGQVLANKVRSTPVAVSTAREISLAPVNKLIDDIVKANAG", "notes": "also called free EmrA of pump-FA"}, "B3": {"name": "EmrA (EmrA part of the EmrB-EmrA fusion protein, C-terminal 6His) (natural protein)", "chain": "B2 chain", "notes": "also called EmrB-EmrA fusion protein (EmrA part); fused EmrA; not shown: His6, C-terminal, kept"}}, "key": {"[1]": {"biological_target": "T1, EmrB (modified EmrB, the BRIL-EmrB-ALFA part of the EmrB-EmrA fusion protein) (E. coli K-12 strain MG1655, UniProt P0AEJ0 13-498)", "T1 construct": "also called EmrB IM transporter; EmrB-EmrA fusion protein (EmrB part); not shown: BRIL (thermostabilized apocytochrome b562RIL), N-terminal, kept; ALFA, C-terminal, kept", "T1 sequence": "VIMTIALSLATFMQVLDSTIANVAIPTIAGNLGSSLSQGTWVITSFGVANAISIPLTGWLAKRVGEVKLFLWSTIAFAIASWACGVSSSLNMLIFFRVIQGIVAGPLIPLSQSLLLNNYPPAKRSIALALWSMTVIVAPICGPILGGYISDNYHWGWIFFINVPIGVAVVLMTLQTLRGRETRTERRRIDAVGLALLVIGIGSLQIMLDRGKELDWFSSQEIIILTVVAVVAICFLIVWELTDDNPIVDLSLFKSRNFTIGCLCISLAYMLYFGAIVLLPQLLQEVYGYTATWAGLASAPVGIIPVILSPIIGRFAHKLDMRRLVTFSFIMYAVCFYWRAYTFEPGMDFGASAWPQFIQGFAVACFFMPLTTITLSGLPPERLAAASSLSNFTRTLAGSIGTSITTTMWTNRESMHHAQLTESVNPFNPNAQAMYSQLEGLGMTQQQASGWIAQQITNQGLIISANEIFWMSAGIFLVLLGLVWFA", "assay": "cryo-EM structure; EmrAB-TolC pump-EA (EmrB-EmrA fusion protein, modified free EmrA, TolC-FLAG), co-expressed and purified as a complex, in peptidisc, 0.7 mg/mL, holey carbon grids; single-particle cryo-EM, 300 kV; maps at 3.13 Å and 3.14 Å", "settings": "both partners purified"}, "[2]": {"biological_target": "B3", "assay": "cryo-EM structure; EmrAB-TolC pump-EA (EmrB-EmrA fusion protein, modified free EmrA, TolC-FLAG), co-expressed and purified as a complex, in peptidisc, 0.7 mg/mL, holey carbon grids; single-particle cryo-EM, 300 kV; maps at 3.13 Å and 3.14 Å", "settings": "both partners purified"}, "TolC (TolC-FLAG) [3]": {"biological_target": "T2, TolC (TolC-FLAG) (E. coli K-12 strain MG1655, UniProt P02930 23-493)", "T2 construct": "also called TolC OM channel; not shown: FLAG, C-terminal, kept", "T2 sequence": "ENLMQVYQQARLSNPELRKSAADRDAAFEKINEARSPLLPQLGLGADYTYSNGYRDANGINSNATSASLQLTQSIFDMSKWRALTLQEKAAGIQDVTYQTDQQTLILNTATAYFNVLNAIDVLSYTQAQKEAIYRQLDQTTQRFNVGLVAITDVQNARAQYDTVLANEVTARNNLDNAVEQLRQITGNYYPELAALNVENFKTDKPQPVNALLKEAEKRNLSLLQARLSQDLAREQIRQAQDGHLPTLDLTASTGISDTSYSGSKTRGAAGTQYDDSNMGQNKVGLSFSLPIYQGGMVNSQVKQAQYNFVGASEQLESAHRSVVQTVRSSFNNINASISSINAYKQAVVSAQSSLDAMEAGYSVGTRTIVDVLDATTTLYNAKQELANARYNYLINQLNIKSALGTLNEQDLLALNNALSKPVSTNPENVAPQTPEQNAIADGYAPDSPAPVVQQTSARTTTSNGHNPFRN", "assay": "cryo-EM structure; EmrAB-TolC pump-EA (EmrB-EmrA fusion protein, modified free EmrA, TolC-FLAG), co-expressed and purified as a complex, in peptidisc, 0.7 mg/mL, holey carbon grids; single-particle cryo-EM, 300 kV; maps at 3.13 Å and 3.14 Å", "settings": "both partners purified"}, "[4]": {"biological_target": "the molecule itself", "assay": "cryo-EM structure; EmrAB-TolC pump-EA (EmrB-EmrA fusion protein, modified free EmrA, TolC-FLAG), co-expressed and purified as a complex, in peptidisc, 0.7 mg/mL, holey carbon grids; single-particle cryo-EM, 300 kV; maps at 3.13 Å and 3.14 Å"}, "[5]": {"biological_target": "T1, EmrB (modified EmrB, the BRIL-EmrB-ALFA …)", "assay": "cryo-EM structure; EmrAB-TolC pump-FA (EmrB-EmrA fusion protein, wild-type free EmrA, TolC-FLAG), co-expressed and purified as a complex, in peptidisc, 0.1 mg/mL, graphene-covered grids; single-particle cryo-EM, 300 kV; maps at 3.59 Å and 3.66 Å", "settings": "both partners purified"}, "TolC (TolC-FLAG) [6]": {"biological_target": "T2, TolC (TolC-FLAG)", "assay": "cryo-EM structure; EmrAB-TolC pump-FA (EmrB-EmrA fusion protein, wild-type free EmrA, TolC-FLAG), co-expressed and purified as a complex, in peptidisc, 0.1 mg/mL, graphene-covered grids; single-particle cryo-EM, 300 kV; maps at 3.59 Å and 3.66 Å", "settings": "both partners purified"}, "[7]": {"biological_target": "the molecule itself", "assay": "cryo-EM structure; EmrAB-TolC pump-FA (EmrB-EmrA fusion protein, wild-type free EmrA, TolC-FLAG), co-expressed and purified as a complex, in peptidisc, 0.1 mg/mL, graphene-covered grids; single-particle cryo-EM, 300 kV; maps at 3.59 Å and 3.66 Å"}}, "data": [{"binder": "B1", "values": [{"measurement": "binding result", "setting": "[1]", "value": "binds"}, {"measurement": "binding result", "setting": "[2]", "value": "binds"}, {"measurement": "binding result", "setting": "TolC (TolC-FLAG) [3]", "value": "binds"}, {"measurement": "stoichiometry N", "setting": "[4]", "value": 6}]}, {"binder": "B2", "values": [{"measurement": "binding result", "setting": "[5]", "value": "binds"}, {"measurement": "binding result", "setting": "TolC (TolC-FLAG) [6]", "value": "binds"}, {"measurement": "stoichiometry N", "setting": "[7]", "value": 6}]}, {"binder": "B3", "values": [{"measurement": "binding result", "setting": "[1]", "value": "binds"}, {"measurement": "binding result", "setting": "TolC (TolC-FLAG) [6]", "value": "binds"}]}]}
